Laboratory results published in paper PMC5612115.

Columns and labels:
His6-tagged sCD4 (D1-D2) = assay: BLI
[1] = biological target: LT5.J4b12C SOSIP.664 trimeric Env (HIV-1 B/C recombinant, soluble gp140) (HIV-1); assay: negative-stain EM

LT5.J4b12C SOSIP.664 trimeric Env (HIV-1 B/C recombinant, soluble gp140) (complex)
fold lower affinity than BG505 SOSIP.664 (His6-tagged sCD4 (D1-D2)): 3 fold
stoichiometry N [1]: 3
